{"source": "patent US20260241035A1", "about": "“FUNCTIONAL NUCLEIC ACID MOLECULE AND METHOD” (THE UNIVERSITY COURT OF THE UNIVERSITY OF EDINBURGH, priority 2022, published 2026)", "format_in_all_cases": "cell-based, human", "key": {"[1]": {"test_system": "patient-derived glioblastoma cell lines (GSC7, E17, E21, E28, E31, E34)", "assay": "SSE-7 activity (% mCherry) across patient-derived glioblastoma cell lines", "description": "FIG. 7: Activity of SSE-7 in a range of GSCs. (A) Schematic of the expression cassette. (B) Experimental outline, (C) Results of % mCherry expression for individual cells across the various cell lines tested. GSC7 was the positive control cell line tested (from which the fragments were initially screened). E17, E28 (previously termed G328), E21, E31, E34 refers to the five additional patient-derived glioblastoma cell lines.\nThe experiment described in Example 8 was repeated in five patient-derived glioblastoma cell lines (E17, E21, E28, E31, E34)."}, "huFb170 fibroblasts": {"test_system": "huFb170 fibroblasts", "assay": "AAV2 transduction: mCherry and HSV-TKv5 expression in huFb170", "conditions": "AAV2 HSV-TK-v5-P2A-mCherry cassette", "protocol": "(§1) For flow cytometry, cells were detached, pelleted and resuspended in an appropriate volume of flow cytometry buffer (1% BSA in PBS, v/v). Cells were stained with Draq7 (Abcam, ab109202, f.c. 0.1 μM) as a live/dead stain and analysed using the BD LSRFortessa cell analyser (4 lasers, BD Bioscience). Analysis of flow cytometry data was carried out in the FlowJo Analysis software (FlowJo, version 10.6.2).\n(§2) Cells were scraped in PBS and spun down at […] twice to remove all liquid. Cell pellets were resuspended in 70 μl of RIPA buffer (50 mM Tris-HCl pH 8.0, 150 mM NaCl, 1% NP-40, 0.5% deoxycholate, 0.1% SDS and protease inhibitor (Complete, Roche, 11697498001) and incubated for 5 min on ice. Lysates were centrifuged at 13000 rpm for 10 min at 4° C. (centrifuge 5415D, Eppendorf). And the supernatant was collected in a new tube. Protein extracts were quantified using the Pierce BCA Protein Assay Kit (Thermo Scientific, Cat: 23225) according to the manufacturer's instructions.\n(§3) HEK293 cells are seeded the day before the transfection into a 6 well plates so that on the day of transfection confluence would be at 60-70%. Before HEK293 cells are transfected with PEI a media change is carried out as this media will be conditioned with virus over the for two days. […] Cells are analysed on the microscope or flow cytometry. […]"}, "GSC7 cells [2]": {"test_system": "GSC7 cells", "assay": "AAV2 transduction: mCherry (flow cytometry) and HSV-TKv5 (western blot) expression in GSC7", "conditions": "AAV2 HSV-TK-v5-P2A-mCherry cassette", "protocol": "as §1, §2, §3"}, "GSC7 cells [3]": {"test_system": "GSC7 cells", "assay": "Flow cytometry of mNGreen reporter in GSC7", "protocol": "Cells were seeded at the required density. The following day the transfection was carried out. […] Following this step, the Plus reagent/Optimem premix was added to all DNA samples followed by the Lipofectamine LTX/Optimem premix. The transfection mix was incubated for 5 min at room temperature and then carefully dropped on the cells. Generally, no media change was carried out. Cells were analysed two days following transfection.\nFor flow cytometry, cells were detached, pelleted and resuspended in an appropriate volume of flow cytometry buffer (1% BSA in PBS, v/v). Cells were stained with Draq7 (Abcam, ab109202, f.c. 0.1 μM) as a live/dead stain and analysed using the BD LSRFortessa cell analyser (4 lasers, BD Bioscience)."}, "[4]": {"test_system": "GSC patient lines E31 and E55", "assay": "Lentivirus SSE-7-mCherry reporter, flow cytometry in GSC patient lines", "description": "FIG. 14: Exemplary SSE-7 also has good activity when deployed with lentivirus. Flow cytometry quantitation of levels of mCherry reporter in GSCs transduced with lentivirus harbouring SSE-7-mCherry reporters."}}}
{"molecule": "SSE-7: synthetic super-enhancer ID4310_ID4428_ID0785_ID3836, SEQ ID NO: 70 (nucleic acid) DNA: TTGTCCTGCCTTTGAGAACACTGGAAGGGCACTGAAGGCTGACCAGCATGCACCTCACCCCACCTCCTCTCTGTCTCATCCTCAGCCATCTAAGCGGGAGACTCATCAGGCTTAAATTCTCATTCTTATCCAAGATTCTTCTGCTTCAAATGAGTCTAAATGGAGATCCTCCCATAAAGGGAGTTCTGTTTGGGCTTCCCTTGGAAGTCCATTGAAAGCGTTTCACATTTCAATGCTTCTTTACATTCTCCTCTAGAATGAATCTGGAAGGGCCATTTCATTCCAGCCCTATCAGATTTACTACTTCCTCCTGTAAGAATGAACTGGGCCCAGCTGGGCATTTGCATCAAAGTGCCTCACCAGAGTTCCCAGCTGCTCTGGCAGAGTGCCCAGGCTTGCCCCAGAGCCCAAACAGAATGCTCTTTGAGATGCCTCTGGTTTTCATACCCTTCCAGGGGAGCAGTTTCCTGGCTGTGTCGTCAGATACTGTGGTTTACGCTGTTCCGGAGTCTGGAGGTCTGTGTGCCTTTGATCTCTTTCCCAACTAATTTGCACAGCTGCTGTGGAGGCCCTCATGAATGACCTCTTTCTTTCCTTTCT", "values": [{"measurement": "expression", "setting": "[1]; E21, E31 and E34", "value": "lower frequency of expression"}, {"measurement": "expression", "setting": "[1]; GSC7, E17 and E28", "value": "highly expressed and comparable to full-length CMV"}, {"measurement": "activity across cell lines", "setting": "[1]; all lines tested", "value": "active in all cell lines"}, {"measurement": "mCherry and HSV-TKv5 expression", "setting": "huFb170 fibroblasts", "value": "not in fibroblasts"}, {"measurement": "mCherry and HSV-TKv5 expression", "setting": "GSC7 cells [2]", "value": "driving both mCherry and HSV-TKv5 expression"}, {"measurement": "expression level compared with positive control CMV, flow cytometry", "setting": "GSC7 cells [3]", "value": "higher than CMV"}, {"measurement": "fluorescence intensity compared with CMV", "setting": "GSC7 cells [3]", "value": "higher intensity than CMV"}, {"measurement": "mCherry reporter expression", "setting": "[4]", "value": "High levels of expression"}]}
